Results taken from patent US20240400657A1 (MorphoSys, published 2024).

B1: MAB #2 (antibody, human IgG1, lambda)
heavy: EVQLVESGGGLVKPGGSLRLSCAASGFTFSSYAMHWVRQAPGKGLEWVGRIKSVAQGGTTDYAAHVKGRFTISRDDSKNTLYLQMNSLKTEDTAVYYCARVSHSTFDVWGQGTLVTVSSASTKGPSVFPLAPSSKSTSGGTAALGCLVKDYFPEPVTVSWNSGALTSGVHTFPAVLQSSGLYSLSSVVTVPSSSLGTQTYICNVNHKPSNTKVDKRVEPKSCDKTHTCPPCPAPEAEGAPSVFLFPPKPKDTLMISRTPEVTCVVVDVSHEDPEVKFNWYVDGVEVHNAKTKPREEQYNSTYRVVSVLTVLHQDWLNGKEYKCKVSNKALPSSIEKTISKAKGQPREPQVYTLPPSREEMTKNQVSLTCLVKGFYPSDIAVEWESNGQPENNYKTTPPVLDSDGSFFLYSKLTVDKSRWQQGNVFSCSVMHEALHNHYTQKSLSLSPGK
light: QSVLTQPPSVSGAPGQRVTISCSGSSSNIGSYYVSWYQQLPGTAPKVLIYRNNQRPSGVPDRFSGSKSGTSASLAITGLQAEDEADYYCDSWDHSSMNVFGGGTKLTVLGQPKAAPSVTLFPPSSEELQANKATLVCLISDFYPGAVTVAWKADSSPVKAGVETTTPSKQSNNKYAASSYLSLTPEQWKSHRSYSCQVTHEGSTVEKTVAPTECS
notes: lambda 1 light chain
B2: MAB #1 (antibody, human IgG1, lambda)
heavy: EVQLVESGGGLVKPGGSLRLSCAASGFTFSSYAMHWVRQAPGKGLEWVGRIKSKAQGGTTDYAAHVKGRFTISRDDSKNTLYLQMNSLKTEDTAVYYCARVSFSTFDVWGQGTLVTVSSASTKGPSVFPLAPSSKSTSGGTAALGCLVKDYFPEPVTVSWNSGALTSGVHTFPAVLQSSGLYSLSSVVTVPSSSLGTQTYICNVNHKPSNTKVDKRVEPKSCDKTHTCPPCPAPEAEGAPSVFLFPPKPKDTLMISRTPEVTCVVVDVSHEDPEVKFNWYVDGVEVHNAKTKPREEQYNSTYRVVSVLTVLHQDWLNGKEYKCKVSNKALPSSIEKTISKAKGQPREPQVYTLPPSREEMTKNQVSLTCLVKGFYPSDIAVEWESNGQPENNYKTTPPVLDSDGSFFLYSKLTVDKSRWQQGNVFSCSVMHEALHNHYTQKSLSLSPGK
light: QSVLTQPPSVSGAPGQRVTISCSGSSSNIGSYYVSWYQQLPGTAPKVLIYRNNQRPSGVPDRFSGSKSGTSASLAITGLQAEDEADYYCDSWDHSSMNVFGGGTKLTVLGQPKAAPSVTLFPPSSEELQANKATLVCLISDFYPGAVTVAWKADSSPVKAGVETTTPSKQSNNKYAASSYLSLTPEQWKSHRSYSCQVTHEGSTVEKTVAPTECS
notes: lambda 1 light chain, VH3-15 framework

What was measured:
[1] = target: T1, full length mouse C5aR stably expressed on CHO Flp-In cells (mouse (Mus musculus), UniProt P30993 1-351); experiment: FACS, CHO Flp-In cells expressing murine C5aR, single IgG concentration
T1 sequence: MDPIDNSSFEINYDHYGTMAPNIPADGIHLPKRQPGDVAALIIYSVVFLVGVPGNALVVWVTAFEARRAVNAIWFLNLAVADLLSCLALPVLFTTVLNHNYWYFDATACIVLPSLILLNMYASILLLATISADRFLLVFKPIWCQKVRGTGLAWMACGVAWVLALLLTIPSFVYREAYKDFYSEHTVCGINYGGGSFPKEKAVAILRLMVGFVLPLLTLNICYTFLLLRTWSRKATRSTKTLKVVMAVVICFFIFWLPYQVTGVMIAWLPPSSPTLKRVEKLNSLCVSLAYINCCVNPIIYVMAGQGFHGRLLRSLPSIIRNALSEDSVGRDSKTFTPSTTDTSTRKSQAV

[2] = target: Trypsin inhibitor; experiment: Protein Panel Profiling (3P), MSD ECL, coated antigen, IgG 100 nM
Method: (§1) 32 different proteins and controls were coated on two 384-well MSD standard plates at a concentration of 1.0 μg/mL at 4° C. over night. The coating solution was discarded and plates were blocked with 50 μL 3% (w/v) BSA in PBS for one hour at RT on a microtiter plate shaker (˜500 rpm) followed by three washing steps with 50 μL washing buffer (PBS with 0.05% (v/v) Tween 20). IgG samples were diluted to 100 nM and 10 nM in assay buffer (PBS with 0.5% (w/v) BSA, 0.05% (v/v) Tween 20). As controls, isotype control antibody MOR03207 (IgG1f_AEASS) and assay buffer were used. Samples and controls were added at 30 μL/well and incubated for three hours at RT on a microtiter plate shaker. The plates were washed three times and 30 μL detection antibody (ECL-labeled anti-human Fab) were added per well and incubated for one hour on a microtiter plate shaker (˜500 rpm). After washing the MSD plate and adding 35 μL/well MSD Read Buffer T with surfactant, electro-chemiluminescence signals were detected using a SECTOR® Imager S600 instrument (Meso Scale Diagnostics).
(§2) For evaluation, binding signals of the antibody sample to a certain protein were divided by the respective binding signals of the reference antibody MOR03207 resulting in a binding ratio (BR). The cumulative binding ratio (CBR) of all proteins except the controls (25 in total) was then calculated: CBR up to 150 indicates an IgG without detectable unspecific binding. Values above 150 indicates an IgG with increased unspecific binding compared to the reference antibody MOR03207.

[3] = target: Trypsinogen; experiment: as above
Method: as §1, §2

[4] = target: Amyloglycosidase; experiment: as above
Method: as §1, §2

[5] = target: T2, Cell surface rec. 1_Lys (h); experiment: as above
T2 construct: identity not disclosed
Method: as §1, §2

[6] = target: T3, Cell surface rec. 3_Fc (h); experiment: as above
T3 construct: identity not disclosed
Method: as §1, §2

[7] = target: RNase A; experiment: as above
Method: as §1, §2

[8] = target: Myoglobin; experiment: as above
Method: as §1, §2

[9] = target: T4, Fc (h); experiment: as above
T4 construct: '(h)' on the sheet read as human
Method: as §1, §2

[10] = target: Cytochrome C; experiment: as above
Method: as §1, §2

[11] = target: Antitrypsin; experiment: as above
Method: as §1, §2

[12] = target: Pepsinogen; experiment: as above
Method: as §1, §2

[13] = target: T5, Serum albumin (h) (human); experiment: as above
T5 construct: '(h)' on the sheet read as human
Method: as §1, §2

[14] = target: T6, anti-human Fab (Dianova); experiment: as above
T6 construct: control of the 3P panel; it captures human IgG as such, so a ratio of 1 means a signal equal to that of MOR03207
Method: as §1, §2

[15] = target: T7, Cell surface rec. 2_Fc (h); experiment: as above
T7 construct: identity not disclosed
Method: as §1, §2

[16] = target: GFP; experiment: as above
Method: as §1, §2

[17] = target: RNase B; experiment: as above
Method: as §1, §2

[18] = target: T8, Hemoglobin (h) (human); experiment: as above
T8 construct: '(h)' on the sheet read as human
Method: as §1, §2

[19] = target: bovine transferrin (bovine, UniProt Q29443 20-704); experiment: as above
Method: as §1, §2

[20] = target: T9, anti-human Fc; experiment: as above
T9 construct: control of the 3P panel; it captures human IgG as such, so a ratio of 1 means a signal equal to that of MOR03207
Method: as §1, §2

[21] = target: T10, engineered version of human C5aR expressed on CHO cells of the PathHunter β-arrestin assay (DiscoveRx) (human, UniProt P21730 1-350); experiment: cell-based or functional assay
T10 sequence (looked up): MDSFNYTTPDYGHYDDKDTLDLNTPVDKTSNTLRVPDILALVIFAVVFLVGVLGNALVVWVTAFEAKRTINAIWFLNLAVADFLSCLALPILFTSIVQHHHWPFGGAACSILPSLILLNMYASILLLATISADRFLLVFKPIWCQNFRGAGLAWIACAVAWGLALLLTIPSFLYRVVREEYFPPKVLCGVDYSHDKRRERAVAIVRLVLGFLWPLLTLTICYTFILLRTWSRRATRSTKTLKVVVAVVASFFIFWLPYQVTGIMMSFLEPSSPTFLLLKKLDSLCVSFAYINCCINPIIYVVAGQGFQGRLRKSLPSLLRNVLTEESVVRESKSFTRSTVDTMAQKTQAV

[22] = target: T11, full-length human ChemR23 expressed on CHO Flp-In cells (human, UniProt Q99788 1-373); experiment: FACS, CHO Flp-In cells expressing human ChemR23, single IgG concentration
T11 construct: also called Chemokine-like receptor 1
T11 sequence: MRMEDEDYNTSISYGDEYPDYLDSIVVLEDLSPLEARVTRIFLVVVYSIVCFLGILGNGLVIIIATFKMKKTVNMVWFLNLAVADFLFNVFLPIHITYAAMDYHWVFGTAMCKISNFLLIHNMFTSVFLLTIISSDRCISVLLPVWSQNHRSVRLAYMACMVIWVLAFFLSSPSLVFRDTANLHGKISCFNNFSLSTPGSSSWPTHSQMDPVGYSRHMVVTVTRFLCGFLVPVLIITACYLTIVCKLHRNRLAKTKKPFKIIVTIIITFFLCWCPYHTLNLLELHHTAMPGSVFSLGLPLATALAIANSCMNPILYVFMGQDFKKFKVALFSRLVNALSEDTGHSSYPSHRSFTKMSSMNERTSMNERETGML

T8 sequence (P69905 2-142, chain 1 of 2): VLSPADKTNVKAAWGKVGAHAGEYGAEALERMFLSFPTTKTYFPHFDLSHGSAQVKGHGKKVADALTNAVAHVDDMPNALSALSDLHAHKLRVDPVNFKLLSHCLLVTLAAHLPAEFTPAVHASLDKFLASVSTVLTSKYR
T8 sequence (P68871 2-147, chain 2 of 2, further chain): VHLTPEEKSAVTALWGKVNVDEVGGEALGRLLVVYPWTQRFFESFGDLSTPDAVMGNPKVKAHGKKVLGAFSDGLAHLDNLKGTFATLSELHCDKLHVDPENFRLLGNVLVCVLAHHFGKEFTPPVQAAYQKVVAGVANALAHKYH
Chain of bovine transferrin (Q29443 20-704 limits assumed): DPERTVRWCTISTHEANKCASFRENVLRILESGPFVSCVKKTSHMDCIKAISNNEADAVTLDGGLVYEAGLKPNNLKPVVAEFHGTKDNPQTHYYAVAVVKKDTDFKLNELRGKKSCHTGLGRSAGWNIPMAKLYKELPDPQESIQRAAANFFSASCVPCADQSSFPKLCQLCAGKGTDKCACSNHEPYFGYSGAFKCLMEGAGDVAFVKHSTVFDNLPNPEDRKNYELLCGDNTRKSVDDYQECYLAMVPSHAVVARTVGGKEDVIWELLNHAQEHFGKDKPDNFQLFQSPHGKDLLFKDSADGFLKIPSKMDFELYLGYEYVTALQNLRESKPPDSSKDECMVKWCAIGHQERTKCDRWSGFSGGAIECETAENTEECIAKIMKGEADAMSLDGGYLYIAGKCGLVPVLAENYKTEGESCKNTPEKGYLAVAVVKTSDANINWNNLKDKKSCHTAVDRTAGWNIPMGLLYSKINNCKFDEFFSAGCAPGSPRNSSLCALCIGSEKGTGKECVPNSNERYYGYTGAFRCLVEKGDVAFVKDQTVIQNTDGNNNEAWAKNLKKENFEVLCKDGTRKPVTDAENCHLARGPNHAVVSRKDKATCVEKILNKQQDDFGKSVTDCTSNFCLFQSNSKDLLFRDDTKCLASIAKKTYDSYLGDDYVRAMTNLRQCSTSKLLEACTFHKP
Chain of RNase A (P61823 27-150): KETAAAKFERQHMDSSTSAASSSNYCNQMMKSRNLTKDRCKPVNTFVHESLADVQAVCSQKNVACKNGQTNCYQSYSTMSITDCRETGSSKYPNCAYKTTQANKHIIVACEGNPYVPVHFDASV
Chain of RNase B (P61823 27-150): as above
T5 sequence (P02768 25-609): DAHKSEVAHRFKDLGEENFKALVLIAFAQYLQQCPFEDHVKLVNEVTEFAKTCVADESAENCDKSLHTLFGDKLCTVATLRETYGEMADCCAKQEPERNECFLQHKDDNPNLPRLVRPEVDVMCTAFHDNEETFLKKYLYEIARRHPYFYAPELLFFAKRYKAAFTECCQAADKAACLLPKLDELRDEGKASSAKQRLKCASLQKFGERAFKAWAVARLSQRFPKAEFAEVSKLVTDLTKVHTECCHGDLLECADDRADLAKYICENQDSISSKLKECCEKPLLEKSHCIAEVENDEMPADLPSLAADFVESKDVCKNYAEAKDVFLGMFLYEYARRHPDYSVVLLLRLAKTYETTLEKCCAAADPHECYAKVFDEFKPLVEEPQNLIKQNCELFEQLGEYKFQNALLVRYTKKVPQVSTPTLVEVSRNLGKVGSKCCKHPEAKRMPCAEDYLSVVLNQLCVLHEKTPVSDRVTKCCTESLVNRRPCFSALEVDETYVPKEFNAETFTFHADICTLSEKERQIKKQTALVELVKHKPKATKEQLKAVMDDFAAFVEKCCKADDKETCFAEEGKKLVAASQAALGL

Row | Binder | binding result [1] | binding ratio (signal / signal of MOR03207) [2] | binding ratio (signal / signal of MOR03207) [3] | binding ratio (signal / signal of MOR03207) [4] | binding ratio (signal / signal of MOR03207) [5] | binding ratio (signal / signal of MOR03207) [6] | binding ratio (signal / signal of MOR03207) [7] | binding ratio (signal / signal of MOR03207) [8] | binding ratio (signal / signal of MOR03207) [9] | binding ratio (signal / signal of MOR03207) [10] | binding ratio (signal / signal of MOR03207) [11] | binding ratio (signal / signal of MOR03207) [12] | binding ratio (signal / signal of MOR03207) [13] | binding ratio (signal / signal of MOR03207) [14] | binding ratio (signal / signal of MOR03207) [15] | binding ratio (signal / signal of MOR03207) [16] | binding ratio (signal / signal of MOR03207) [17] | binding ratio (signal / signal of MOR03207) [18] | binding ratio (signal / signal of MOR03207) [19] | binding ratio (signal / signal of MOR03207) [20] | further results
1 | B1 | no binding (tested: 300 nM) | 7 | 2 | 2 | 2 | 2 | 6 | 2 | 3 | 2 | 2 | 5 | 2 | 1 | 2 | 2 | 2 | 2 | 9 | 1 | [%] inhibition at 1.2 nM C5a and 50 nM IgG, β-arrestin recruitment [21]: 90.5%; [%] inhibition at 11 nM C5a and 50 nM IgG, β-arrestin recruitment [21]: 75.2%; [%] inhibition at 100 nM C5a and 50 nM IgG, β-arrestin recruitment [21]: 31.2%; binding result [22]: no binding (tested: 300 nM)
2 | B2 | no binding (tested: 300 nM) | 5 | 2 | 3 | 2 | 2 | 4 | 2 | 2 | 2 | 2 | 4 | 2 | 1 | 2 | 2 | 2 | 2 | 19 | 1 | [%] inhibition at 1.2 nM C5a and 50 nM IgG, β-arrestin recruitment [21]: 91.9%; [%] inhibition at 11 nM C5a and 50 nM IgG, β-arrestin recruitment [21]: 79.9%; [%] inhibition at 100 nM C5a and 50 nM IgG, β-arrestin recruitment [21]: 41.8%; binding result [22]: no binding (tested: 300 nM)
